Assays:
[1] = target: full-length human fibronectin (UniProt P02751); assay: SPR; Biacore T200; FN amine-coupled to a CM5 chip (1000 RU and 5000 RU); α^UpaB 0.8–100 µM injected; 25 °C, PBS-T (PBS pH 7.4, 0.05% Tween 20); steady-state affinity model; apparent
[2] = target: full-length human fibronectin (UniProt P02751); assay: ELISA; settings: parent: est. 0.29; read off a plot

full-length human fibronectin, sequence (P02751 32-2477): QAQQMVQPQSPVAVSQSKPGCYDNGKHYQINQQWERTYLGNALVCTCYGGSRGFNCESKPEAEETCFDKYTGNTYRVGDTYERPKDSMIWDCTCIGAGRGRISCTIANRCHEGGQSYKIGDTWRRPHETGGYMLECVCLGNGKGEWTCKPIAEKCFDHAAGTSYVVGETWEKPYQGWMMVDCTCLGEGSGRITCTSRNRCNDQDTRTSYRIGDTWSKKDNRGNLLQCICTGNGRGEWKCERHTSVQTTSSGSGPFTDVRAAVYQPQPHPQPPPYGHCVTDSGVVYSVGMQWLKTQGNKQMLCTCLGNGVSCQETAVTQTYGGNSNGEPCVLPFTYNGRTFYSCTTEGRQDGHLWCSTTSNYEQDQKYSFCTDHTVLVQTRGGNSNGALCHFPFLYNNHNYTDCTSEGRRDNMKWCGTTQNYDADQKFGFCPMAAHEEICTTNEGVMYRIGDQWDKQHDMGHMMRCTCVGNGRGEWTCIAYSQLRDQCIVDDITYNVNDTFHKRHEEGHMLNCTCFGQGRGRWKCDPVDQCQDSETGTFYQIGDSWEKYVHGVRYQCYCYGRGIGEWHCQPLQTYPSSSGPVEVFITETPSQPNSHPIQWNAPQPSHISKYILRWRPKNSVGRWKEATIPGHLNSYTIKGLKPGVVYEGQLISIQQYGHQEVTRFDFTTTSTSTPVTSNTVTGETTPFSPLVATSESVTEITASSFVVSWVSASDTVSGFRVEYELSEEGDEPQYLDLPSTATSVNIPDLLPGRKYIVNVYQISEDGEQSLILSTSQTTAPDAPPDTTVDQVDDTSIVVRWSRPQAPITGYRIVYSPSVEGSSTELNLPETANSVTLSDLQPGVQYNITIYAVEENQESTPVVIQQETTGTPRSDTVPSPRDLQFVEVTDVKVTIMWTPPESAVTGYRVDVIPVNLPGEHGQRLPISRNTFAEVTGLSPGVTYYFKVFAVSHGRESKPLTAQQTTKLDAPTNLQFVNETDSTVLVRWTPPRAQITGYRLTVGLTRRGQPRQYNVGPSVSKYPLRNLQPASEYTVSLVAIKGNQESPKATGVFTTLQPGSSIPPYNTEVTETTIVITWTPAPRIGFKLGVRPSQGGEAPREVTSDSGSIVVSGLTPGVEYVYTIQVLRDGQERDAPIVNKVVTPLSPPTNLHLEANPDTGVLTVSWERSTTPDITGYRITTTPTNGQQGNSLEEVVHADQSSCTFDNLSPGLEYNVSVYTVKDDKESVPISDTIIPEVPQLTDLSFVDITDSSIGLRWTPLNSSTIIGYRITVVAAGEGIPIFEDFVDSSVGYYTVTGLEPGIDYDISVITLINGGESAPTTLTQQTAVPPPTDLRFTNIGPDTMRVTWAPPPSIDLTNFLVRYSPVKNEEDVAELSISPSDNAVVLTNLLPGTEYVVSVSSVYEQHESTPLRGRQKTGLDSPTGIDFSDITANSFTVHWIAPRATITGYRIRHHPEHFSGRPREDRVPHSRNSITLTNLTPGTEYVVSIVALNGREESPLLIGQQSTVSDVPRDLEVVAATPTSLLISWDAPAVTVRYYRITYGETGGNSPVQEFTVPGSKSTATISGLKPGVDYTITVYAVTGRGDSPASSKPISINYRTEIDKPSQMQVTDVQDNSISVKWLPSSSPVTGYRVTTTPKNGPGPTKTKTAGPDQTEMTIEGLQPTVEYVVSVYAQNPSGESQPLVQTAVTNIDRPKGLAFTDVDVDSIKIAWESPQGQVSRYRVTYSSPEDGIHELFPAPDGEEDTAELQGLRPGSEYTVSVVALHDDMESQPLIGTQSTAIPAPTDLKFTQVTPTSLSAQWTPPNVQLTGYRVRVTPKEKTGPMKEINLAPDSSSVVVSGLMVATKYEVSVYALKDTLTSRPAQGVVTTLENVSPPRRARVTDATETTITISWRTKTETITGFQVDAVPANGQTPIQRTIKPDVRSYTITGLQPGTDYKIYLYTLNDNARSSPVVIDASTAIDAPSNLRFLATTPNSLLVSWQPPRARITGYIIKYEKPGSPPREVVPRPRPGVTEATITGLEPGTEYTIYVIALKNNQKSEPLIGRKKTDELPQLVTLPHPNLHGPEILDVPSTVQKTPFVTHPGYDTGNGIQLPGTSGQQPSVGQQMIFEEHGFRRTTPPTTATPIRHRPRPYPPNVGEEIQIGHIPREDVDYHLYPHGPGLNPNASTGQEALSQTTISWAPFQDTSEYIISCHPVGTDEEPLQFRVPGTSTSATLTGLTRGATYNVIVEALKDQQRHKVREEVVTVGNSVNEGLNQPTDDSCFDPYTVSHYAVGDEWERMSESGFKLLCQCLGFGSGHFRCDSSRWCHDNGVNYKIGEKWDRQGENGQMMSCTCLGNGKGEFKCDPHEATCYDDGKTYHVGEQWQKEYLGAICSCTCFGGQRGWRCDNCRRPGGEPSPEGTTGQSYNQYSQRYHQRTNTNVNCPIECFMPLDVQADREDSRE

| Substance | Kd [1] [µM] | response (Absorbance at 405 nm) [2] |
| --- | --- | --- |
| UpaB α-domain (α^UpaB), residues 38–500, from UPEC CFT073 (domain or fragment; other documents disagree on this pair) | 45.2 |  |
| UpaB α-domain (α^UpaB), residues 38–500, from UPEC CFT073 E103A; D138A; E165A; E226A |  | 0.27 |
| UpaB α-domain (α^UpaB), residues 38–500, from UPEC CFT073 E165A; N189A; Q197A; N200A; Q203A; K256A; N316A |  | 0.33 |
| UpaB α-domain (α^UpaB), residues 38–500, from UPEC CFT073 F101A; Y130A; Y187A; F195A; L201G; L202G; Y260A |  | 0.21 |
| UpaB α-domain (α^UpaB), residues 38–500, from UPEC CFT073 N116A; D119A; N146A; N175A; D217A; K245A; D246A; D281A; R310A; D336A |  | 0.039 |

Source: PMC6488583
